Laboratory results from US20260193317A1, “COMBINATION THERAPY WITH ACTRIIB RECEPTOR VARIANTS AND GLP-1 AGONISTS” (35PHARMA Inc., priority 2023, published 2026).
Each block holds one molecule with its values, some of them ahead of it.

Experiments:
BMP-10 [1] = molecular target: T1, BMP-10 (Homo sapiens, UniProt O95393); test: BMP-10 binding by bio-layer interferometry (BLI); details: single concentration 12.5 nM BMP-10
T1 sequence (O95393 317-424): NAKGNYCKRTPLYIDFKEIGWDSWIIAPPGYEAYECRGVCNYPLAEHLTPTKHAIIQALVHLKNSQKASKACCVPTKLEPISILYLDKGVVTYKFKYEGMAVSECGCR
Method: To determine potency on BMP-10, the same BMP-reporter cell line was used as described above. A final concentration of 2.5 nM of each expressed protein was tested in the presence of 40 ng/mL of BMP-10 (R&D #2926-BP). In this assay, a loss of signal indicates neutralization of BMP-10 by the exemplary agent. Results are expressed as a % of the signal obtained with the cytokine alone. A separate assay was used to estimate BMP-10 binding, using bio-layer interferometry (BLI) on a Gator® Plus instrument (Gator Bio, Palo Alto, USA). An anti-Human IgG Fc Gen II probe (#160024, Gator Bio) was loaded with expressed proteins in CHO supernatants, following which BMP-10 binding kinetics (single concentration, 12.5 nM) were assessed.

activin A = molecular target: T2, activin A (Homo sapiens, UniProt P08476); test: Small-scale activin A ELISA with CHO supernatants; details: 1 μg/mL protein, 30 ng/mL activin A, loss of signal = binding
T2 sequence (P08476 311-426): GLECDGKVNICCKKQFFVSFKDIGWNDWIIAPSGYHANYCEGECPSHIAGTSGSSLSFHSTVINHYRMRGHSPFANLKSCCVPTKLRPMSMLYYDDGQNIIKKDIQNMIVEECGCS
Method: (§1) Small-scale testing of ActRIIB-ECD fusion proteins. Additional investigation of a series of exemplary agents was performed using proteins expressed in CHO cells. Briefly, DNA encoding the ActRIIB-ECD-Fc fusion constructs was transfected in cells seeded in 12-well plates in a final volume of 1 ml. After 7 days, the supernatant was harvested, clarified, and the amount of expressed protein in each well was quantified using standard methods. The potency of each agent for inhibition of activin A, BMP-9 and BMP-10 was determined in three separate assays.
The next day, the plate was washed three times with buffer (Biolegend #421601). […] Expressed proteins in the supernatants described above were diluted to 2 μg/mL in assay diluent (0.5% BSA, 0.05% tween-20 in PBS), mixed 1:1 with recombinant human activin A (R&D #338-AC, 60 ng/mL, diluted in assay diluent). Complexes were immediately added to the 96-well plate in technical duplicates and incubated for 1 h at RT (concentration of expressed protein and activin A on the plate were 1 μg/mL and 30 ng/mL, respectively). […] In this assay, a loss of signal indicates binding of the exemplary agent to activin A, which prevents activin A binding to the anti-activin A antibody on the plate. Results are expressed as a % of the signal obtained with wild-type ActRIIB-Fc (P75).

BMP-10 [2] = molecular target: T1, BMP-10; test: Small-scale BMP-10 BMP-reporter cell-based assay, single concentration; details: […] protein, 40 ng/mL BMP-10
Method: Characterization of the BMP-9 and BMP-10 inhibition potency (IC50) of the fusion proteins was performed using a second cell-based reporter assay. Human hepatic HepG2 cells were transfected with a SEAP-encoding plasmid, in which SEAP expression is under the control of the murine Id1 promoter. A stable pool was generated from this transfection. Cells were grown in EMEM, containing 10% heat-inactivated FBS and 200 μg/mL zeocin (hereafter, “HepG2 growth medium”). […] For all assays, cells were seeded in 96-well plates at a confluence of 100,000 cells per well in HepG2 growth medium. Cells were left to attach for 10 minutes at RT prior to being transferred to a 37° C. incubator (5% CO2) overnight. […] At the end of the incubation, absorbance was read at 650 nm. […]
Small-scale testing of ActRIIB-ECD fusion proteins. […] After 7 days, the supernatant was harvested, clarified, and the amount of expressed protein in each well was quantified using standard methods. The potency of each agent for inhibition of activin A, BMP-9 and BMP-10 was determined in three separate assays.
To determine potency on BMP-10, the same BMP-reporter cell line was used as described above. […] Results are expressed as a % of the signal obtained with the cytokine alone. […]

BMP-9 [3] = molecular target: T3, BMP-9 (Homo sapiens, UniProt Q9UK05); test: Small-scale BMP-9 ELISA with CHO supernatants; assay type: binding; details: BMP-9 10 ng/mL
T3 sequence (Q9UK05 320-429): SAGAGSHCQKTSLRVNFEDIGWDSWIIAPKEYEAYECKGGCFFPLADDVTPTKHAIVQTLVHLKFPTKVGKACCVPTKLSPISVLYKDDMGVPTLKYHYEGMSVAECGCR
Method: as §1
The next day, the plate was washed three times. […] Expressed proteins in the supernatants were diluted 1 in 2 in assay diluent (0.5% BSA, 0.05% tween-20 in PBS) and 100 μl was added to the 96-well plate in technical duplicates. After a 1.5-hour incubation at RT, the plate was washed three times. […] In this assay, a loss of signal indicates less binding of the exemplary agent to BMP-9. Results are expressed as a % of the signal obtained with wild-type ActRIIB-Fc (P75).

BMP-10 [4] = molecular target: T4, BMP-10 (UniProt O95393 317-424); test: cell-based or functional assay
T4 sequence (looked up): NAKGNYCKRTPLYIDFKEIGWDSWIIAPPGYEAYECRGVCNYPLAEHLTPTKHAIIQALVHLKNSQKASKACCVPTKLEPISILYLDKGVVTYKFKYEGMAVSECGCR

BMP-9 [5] = molecular target: T5, BMP-9 (UniProt Q9UK05 320-429); test: cell-based or functional assay
T5 sequence (looked up): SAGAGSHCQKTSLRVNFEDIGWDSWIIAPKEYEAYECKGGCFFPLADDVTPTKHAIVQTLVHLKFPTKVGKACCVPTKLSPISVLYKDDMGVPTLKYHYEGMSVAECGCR

[6] = molecular target: T6, recombinant human activin A (human, UniProt P08476 311-426); test: direct ELISA, activin A coated, anti-human Fc-HRP; co-formulation with semaglutide, D 28 at 2-8°C
T6 construct: also called R&D #338-AC
T6 sequence (looked up): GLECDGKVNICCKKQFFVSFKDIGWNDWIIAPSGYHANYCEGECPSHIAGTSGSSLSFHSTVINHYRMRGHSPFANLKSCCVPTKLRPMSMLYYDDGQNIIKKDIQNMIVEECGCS
Method: (§3) In each case, the following parameters were assessed: a) monomer content (size exclusion chromatography), b) activin A and GDF-8 neutralization (cell-based assays [CBAs]), c) activin A binding (ELISA), d) GLP-1 receptor binding (ELISA).
(§4) Potency testing by ELISA. […] Blocking buffer (1% BSA, 0.05% tween-20 in PBS, 300 μL/well) was added to each well and the plate was incubated for 1 hour at RT. Starting at 2.5 μg/mL, test agents were diluted in assay diluent (1% BSA, 0.05% tween-20 in PBS, 100 μL/well) and loaded on the plate for 1 h at RT.

activin B = molecular target: T7, activin B (UniProt P09529 293-407); test: cell-based or functional assay
T7 sequence (looked up): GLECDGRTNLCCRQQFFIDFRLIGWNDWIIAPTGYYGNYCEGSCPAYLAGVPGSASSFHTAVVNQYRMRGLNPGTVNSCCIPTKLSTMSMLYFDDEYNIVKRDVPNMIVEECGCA

GDF-8 = GDF-8 (UniProt O14793 267-375); test: cell-based or functional assay
[7] = molecular target: T6, recombinant human activin A; test: cell-based or functional assay
GDF-11 = GDF-11 (UniProt O95390 299-407); test: cell-based or functional assay
[8] = molecular target: T6, recombinant human activin A; test: direct ELISA, activin A coated, anti-human Fc-HRP; co-formulation with semaglutide, D 28 at room temperature
Method: as §3, §4

[9] = molecular target: T6, recombinant human activin A; test: direct ELISA, activin A coated, anti-human Fc-HRP; co-formulation with semaglutide, D 7 at room temperature
Method: as §3, §4

[10] = molecular target: T6, recombinant human activin A; test: direct ELISA, activin A coated, anti-human Fc-HRP; co-formulation with semaglutide, D 7 at 2-8°C
Method: as §3, §4

[11] = molecular target: T6, recombinant human activin A; test: direct ELISA, activin A coated, anti-human Fc-HRP; co-formulation with semaglutide, D 0
Method: as §3, §4

DIO mice = test: Body composition in high fat diet mice, alone and in combination with incretin mimetics; assay type: in vivo
Method: Experiments were performed in vivo to investigate the potential for additive or synergistic effects between exemplary ActRIIB-ECD polypeptide constructs and incretin mimetics.

[12] = tested on: diet-induced obese (DIO) mice; test: Body composition and metabolism in diet-induced obese (DIO) mice; assay type: in vivo
Method: (§2) Experiments were performed to assess the effects of P1229 on body composition and metabolism in diet-induced obese (DIO) mice. DIO mice were purchased from Jackson Laboratories (#380050). Briefly, mice were fed a high-fat diet (HFD, 60% kcal from fat) from 6 weeks of age until 22 weeks of age (total of 16 weeks on the HFD). […] After 3 weeks of treatments, some animals were sacrificed and scanned by EchoMRI […] (FIGS. 11A-F), while others were sacrificed for tissue collection and RNA analysis. Animals were maintained on the HFD throughout the acclimatization and treatment periods. The murine version of bimagrumab used for these experiments comprises the heavy chain amino acid sequence of SEQ ID NO: 376 and the light chain sequence of SEQ ID NO: 377.

[13] = tested on: follicle-stimulating hormone (FSH); test: FSH production in DIO mice; assay type: in vivo; details: 3 weeks of treatment
Method: as §2
Follicle-stimulating hormone (FSH) is a known biomarker of in vivo target engagement for activin receptor-based traps (See Attie et al. (2013). Muscle Nerve, 47: 416-423). To further validate in vivo target engagement for exemplary agents, FSH production was evaluated in DIO mice, as described above.

Chain of GDF-11 (O95390 299-407 limits assumed): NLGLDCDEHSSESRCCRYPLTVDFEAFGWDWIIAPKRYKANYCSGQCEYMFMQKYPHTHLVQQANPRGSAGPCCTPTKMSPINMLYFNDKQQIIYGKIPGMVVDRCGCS

- BMP-10 KD by bio-layer interferometry (BMP-10 [1]): higher KD (lower affinity) than P75
- BMP-9 binding, ELISA signal relative to P75 (BMP-9 [3]): near undetectable binding to BMP-9
Molecule: P444: WT hActRIIA, 3 aa linker (GGG), IgG1 Fc; SEQ ID 173 [reference compound]
- activin A binding, ELISA signal relative to P75 (activin A): comparable activin A binding profile to P75
- BMP-10 neutralization, signal relative to BMP-10 alone (BMP-10 [2]): less neutralization (i.e., greater signal) than P75

- BMP-10 IC50; BMP-reporter HepG2 cells (BMP-10 [4]): > 100 nM
- BMP-9 IC50; BMP-reporter HepG2 cells (BMP-9 [5]): > 1000 nM
- ELISA potency fold-change vs P1372 alone (ref = 1) [6]: 1.3 fold
- Activin B IC50; TGFβ-reporter HEK293 cells (activin B): 2 nM
- GDF-8 IC50; TGFβ-reporter HEK293 cells (GDF-8): 0.18 nM
- Activin A IC50; TGFβ-reporter HEK293 cells [7]: 0.56 nM
- GDF-11 IC50; TGFβ-reporter HEK293 cells (GDF-11): 0.53 nM
- ELISA potency fold-change vs P1372 alone (ref = 1) [8]: 0.79 fold
- ELISA potency fold-change vs P1372 alone (ref = 1) [9]: 1.4 fold
- ELISA potency fold-change vs P1372 alone (ref = 1) [10]: 0.85 fold
- ELISA potency fold-change vs P1372 alone (ref = 1) [11]: 0.98 fold
B1: P1372 (Fc fusion)
chain: ETRECIYYNANWELERTNQSGLERCEGEQDKRWHCYASWRNSSGTIELVKKGCWLDDFNCYDRQECVATEENPQVYFCCCEGNFCNERFTHLPEAGGPEVTYEPPPTGGGGSGGGGSGGGGTHTCPPCPAPELLGGPSVFLFPPKPKDTLYITREPEVTCVVVDVSHEDPEVKFNWYVDGVEVHNAKTKPREEQYNSTYRVVSVLTVLHQDWLNGKEYKCKVSNKALPAPIEKTISKAKGQPREPQVYTLPPSRDELTKNQVSLTCLVKGFYPSDIAVEWESNGQPENNYKTTPPVLDSDGSFFLYSKLTVDKSRWQQGNVFSCSVMHEALHNHYTQKSLSLSPG
notes: also tested in co-formulation with semaglutide, tirzepatide or retatrutide; also called ActRIIB ligand trap P1372

B2: P1307: murine version of bimagrumab, an antibody targeting ActRIIB and ActRIIA; heavy chain SEQ ID NO: 376, light chain SEQ ID NO: 377 (antibody)
heavy: MDWTWRILFLVAAATGTHAQVQLVQSGAEVKKPGASVKVSCKASGYTFTSSYINWVRQAPGQGLEWMGTINPVSGSTSYAQKFQGRVTMTRDTSISTAYMELSSLRSEDTAVYYCARGGWFDYWGQGTLVTVSSAKTTAPSVYPLAPVCGDTTGSSVTLGCLVKGYFPEPVTLTWNSGSLSSGVHTFPAVLQSDLYTLSSSVTVTSSTWPSQSITCNVAHPASSTKVDKKIEPRGPTIKPCPPCKCPAPNAAGGPSVFIFPPKIKDVLMISLSPIVTCVVVDVSEDDPDVQISWFVNNVEVHTAQTQTHREDYNSTLRVVSALPIQHQDWMSGKEFKCKVNNKDLPAPIERTISKPKGSVRAPQVYVLPPPEEEMTKKQVTLTCMVTDFMPEDIYVEWTNNGKTELNYKNTEPVLDSDGSYFMYSKLRVEKKNWVERNSYSCSVVHEGLHNHHTTKSFSRTPGK
light: MVLQTQVFISLLLWISGAYGDIALTQPASVSGSPGQSITISCTGTSSDVGSYNYVNWYQQHPGKAPKLMIYGVSKRPSGVSNRFSGSKSGNTASLTISGLQAEDEADYYCGTFAGGSYYGVFGGGTKLTVLGQPKSTPTLTVFPPSSEELKENKATLVCLISNFSPSGVTVAWKANGTPITQGVDTSNPTKEGNKFMASSFLHLTSDQWRSHNSFTCQVTHEGDTVEKSLSPAECL
- Body weight (% change from baseline) (DIO mice; DIO mice, 21 days s.c., P1307 20 mg/kg weekly, P1229 40 mg/kg twice weekly, semaglutide 40 μg/kg daily, tirzepatide 45 μg/kg daily, alone or combined): +5.4%
- visceral, epididymal, pericardial, peri-renal, and retroperitoneal white adipose tissue weights (DIO mice; DIO mice, D21): not significantly affected
- gastrocnemius and tibialis anterior weights (DIO mice; DIO mice, D21, P1229 with or without caloric restriction): significantly increased
- Fat mass (% change from baseline) (DIO mice; as E44, NMR): −5.7%
- Lean mass (% change from baseline) (DIO mice; as E44, NMR): +12.3%
- Lean mass/fat mass ratio (DIO mice; as E44, NMR): 1.4
- hepatic Ahsg expression [12]: reduced Ahsg expression
- hepatic Fgf21 expression [12]: reduced
- hepatic Inhbe expression [12]: significantly decreased Inhbe expression
- Mss51 gene expression in gastrocnemius muscle ([12]; 3 weeks): reduced Mss51 gene expression
- fat mass and lean mass (EchoMRI) ([12]; 3 weeks s.c., P75, P1229 25 mg/kg twice weekly, P1373 5, 20, 50 mg/kg twice weekly, P1307 20 mg/kg weekly): promoted lean mass gain but less fat loss
- FSH production [13]: significant decreases in FSH production
